# Data: patent US8722043B2, “Induction of p53 expression by neutralization of neuropilin-2 for the treatment of cancers” (Diaclone, priority 2008, dated 2014)
# B1: ITAC-B1: anti-human neuropilin-2 murine monoclonal antibody, VH SEQ ID No. 2, VL SEQ ID No. 4, produced by hybridoma CNCM 1-4054 (antibody, listed as Mus musculus, V domains shown)
# VH: EVKLQESGAELVKPGASVKLSCTVSGFNIKDTYIHWVIQRPEQGLEWLGRIDPANGNTKYDPKFQGKATITADTSSNTAYLQLSSLTSEDTAVYYCARWAVVGDYWGQGTTLTVSS
# VL: YCDHPLYKFLHVSAGDRVTITCKASQSVSDDVAWYQQKPGQSPKLLIYSASNRYTGVPDRFTGSGYGTDFTFTISTVQPEDLAVYFCQQDYSSPTFGSGTKLELK
# What was measured:
# Assay type in all cases: cell-based, human
# [1] = tested on: Colo320^siRNA-NRP-2 cells (not expressing NRP-2); experiment: MTT assay for tumour cell proliferation; conditions: 5 μg/ml antibody; 24, 48 or 72 hours
# Source text: (§1) The MTT proliferation assay is based on the reduction of 3-(4,5-dimethylthiazol-2-yl)-2,5-diphenyltetrazolium bromide), by the mitochondrial succinate dehydrogenase of active live cells, to give formazan. The coloration intensity (OD) induced by this reaction is proportional to the number of live cells present during the assay, and to the metabolic activity thereof.
# (§2) 4000 cells per well of Colo320^siRNA-ctrl cells (control cells transfected with an empty vector) or of Colo320^siRNA-NRP-2 cells (transfected with an siRNA targeting NRP-2), in 100 μl of DMEM medium containing 10% of inactivated FCS, were seeded into a 96-well Maxisorp plate. After adhesion of the cells, 5 μg/ml of ITAC-B anti-NRP-2 antibody or 5 μg/ml of control antibody were added. After culture for 24, 48 or 72 hours, 10 p. 1 of MTT reconstituted at 5 mg/ml in PBS were added to each culture well. The plates were then incubated for 3 hours in the dark, at 37° C. and 5% CO2, and centrifuged, and then the supernatant was removed. 200 p. 1 of DMSO were then added to each well. The optical density was read within an hour, at 570 nm, after shaking with the plate. The assay was carried out in triplicate.
# (§3) Panels A and B of FIG. 11 represent, respectively, the results obtained in the proliferation assay carried out with the Colo320^siRNA-ctrl or Colo320^siRNA-NRP-2 cells. […]
# [2] = tested on: Colo320^siRNA-ctrl cells (express NRP-2); experiment: MTT assay for tumour cell proliferation; conditions: 5 μg/ml antibody; 24, 48 or 72 hours
# Source text: as §1, §2, §3
# [3] = tested on: HT29ctrl cells; experiment: Annexin V-APC apoptosis test; conditions: 0.5, 1 and 5 μg/ml; 16 hours
# Procedure: In order to determine the ability of the ITAC-B1 antibody to induce apoptosis of tumour cells expressing NRP-2, an in vitro Annexin V-APC apoptosis test was carried out (BD Pharmingen, San Diego, Calif.). This test is based on the externalization of phosphatidylserin by apoptotic cells and on the binding of Annexin V-APC to this molecule.
# 1 ml of DMEM medium containing 10% of inactivated FCS and 100 000 HT29-NRP-2 cells or 100 000 HT29ctrl cells were seeded, per well, into a 24-well Nunc plate. After adhesion of the cells (3 hours), three concentrations of ITAC-B anti-NRP-2 antibody (0.5 μg/ml, 1 μg/ml and 5 μg/ml) were tested in various wells. In parallel, “cells alone” controls were carried out, as were negative controls (anti-human mouse IgG1 antibody (BZ1) at the same concentrations as the ITAC-B1 antibody).
# After incubation for 16 hours, the culture supernatant was drawn off and 500 μl of trypsin-EDTA were added to each well and left in contact for 10 minutes. When the cells began to detach, 500 μl of DMEM medium-10% FCS were added per well. […]
# For each of the panels of FIG. 12, the number of events (number of cells) is indicated on the y-axis and the fluorescence intensity (corresponding to the labelling of the cells with the Annexin V-APC) is represented on the x-axis. […]
# [4] = tested on: VEGFR1; experiment: Western blotting of VEGFR1 phosphorylation; conditions: 20 μg/ml, 24 hours; HT29-NRP-2 and Colo320^siRNA-ctrl cells; treated versus not treated
# Procedure: The possible effect of the ITAC-B1 antibody on the degree of phosphorylation of a VEGF receptor (VEGFR1), and also on the phosphorylation of the AKT protein which is activated by means of the VEGF receptors, was studied on HT29-NRP-2 and Colo320^siRNA-ctrl tumour cells.
# The cells were cultured for 24 hours in RPMI medium+10% FCS in the presence of the BZ1 control antibody at 20 μg/ml, of ITAC-B1 at 20 μg/ml or of 5-FU at 50 μg/ml. A “nontreated cell” control was added (“medium” control). The cells were then isolated and lysed, and the phosphorylation of VEGFR-1 and of AKT was evaluated by Western blotting on the cell protein extracts, using antibodies directed against nonphosphorylated VEGFR1 (anti-VEGFR1 rabbit polyclonal antibody) or phosphorylated VEGFR1 (anti-phospho-VEGFR1^Tyr1213 rabbit polyclonal antibody, R&D systems) or antibodies directed against nonphosphorylated AKT (rabbit polyclonal antibody C67E7, Cell Signaling technology) or phosphorylated AKT (anti-phospho-AKT^Ser473 rabbit polyclonal antibody DE-9, Cell Signaling technology). The results are represented in FIGS. 16 and 17.
molecule,measurement,setting,value
B1,proliferation (OD at 570 nm),[1],identical to that of the control cells and to that observed in the presence of the control antibody
same,proliferation (OD at 570 nm),[2],less than that of the cells alone and that observed in the presence of the control antibody
same,apoptosis (Annexin V-APC labelling),[3],does not bring about the apoptosis of cells not expressing NRP-2
same,phosphorylation status of VEGFR,[4],similar
